Results reported in patent US20250197501A1.

Tests used:
[1] = target: human B7-H3 on the surface of human cancer cells (human) (UniProt Q5ZPR3); assay: flow cytometry, HepG2 cells
[2] = target: human B7-H3 on the surface of human cancer cells (human) (UniProt Q5ZPR3); assay: flow cytometry, DU145 cells
[3] = target: human B7-H3 on the surface of human cancer cells (human) (UniProt Q5ZPR3); assay: flow cytometry, Detroit 562 cells
[4] = target: human B7-H3 on the surface of human cancer cells (human) (UniProt Q5ZPR3); assay: flow cytometry, NCI-H520 cells
[5] = target: human B7-H3 on the surface of human cancer cells (human) (UniProt Q5ZPR3); assay: flow cytometry, OECM-1 cells
[6] = target: human B7-H3 on the surface of human cancer cells (human) (UniProt Q5ZPR3); assay: flow cytometry, A549 cells
[7] = target: human B7-H3 on the surface of human cancer cells (human) (UniProt Q5ZPR3); assay: flow cytometry, H1299 cells
[8] = target: human B7-H3 on the surface of human cancer cells (human) (UniProt Q5ZPR3); assay: flow cytometry, LNCaP cells
[9] = target: human B7-H3 on the surface of human cancer cells (human) (UniProt Q5ZPR3); assay: flow cytometry, PC-3 cells
[10] = target: human B7-H3 on the surface of human cancer cells (human) (UniProt Q5ZPR3); assay: flow cytometry, HA59T cells
[11] = target: human B7-H3 on the surface of human cancer cells (human) (UniProt Q5ZPR3); assay: flow cytometry, CAL 27 cells
[12] = target: human B7-H3 on the surface of human cancer cells (human) (UniProt Q5ZPR3); assay: flow cytometry, Huh7 cells

Measured: MFI value

Chain of human B7-H3 on the surface of human cancer cells (human) (Q5ZPR3 29-534 limits assumed): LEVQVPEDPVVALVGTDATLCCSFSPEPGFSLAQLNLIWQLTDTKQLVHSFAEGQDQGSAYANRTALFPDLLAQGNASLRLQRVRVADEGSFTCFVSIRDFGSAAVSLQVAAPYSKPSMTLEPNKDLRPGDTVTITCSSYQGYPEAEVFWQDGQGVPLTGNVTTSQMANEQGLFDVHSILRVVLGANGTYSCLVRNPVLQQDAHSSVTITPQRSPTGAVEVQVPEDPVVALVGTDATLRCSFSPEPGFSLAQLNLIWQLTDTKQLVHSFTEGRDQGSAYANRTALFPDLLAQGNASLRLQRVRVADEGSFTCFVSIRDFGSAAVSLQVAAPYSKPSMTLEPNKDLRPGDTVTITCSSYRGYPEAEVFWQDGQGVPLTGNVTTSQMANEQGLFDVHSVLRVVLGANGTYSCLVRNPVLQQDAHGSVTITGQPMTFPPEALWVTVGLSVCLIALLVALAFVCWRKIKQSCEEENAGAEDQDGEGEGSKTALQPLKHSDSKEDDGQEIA

IgG (isotype control antibody)
< 600 MFI: all assays above
